The assay relates to mouse melanoma B16-F10. Nature of the assay: Mouse melanoma B16-F10 model, subcutaneous and intravenous transplantation (Example 22). It is filed as in vivo. The note with it: intraperitoneal 10 mg/kg on days 3 and 6; FIG. 110. Here is the method:
The drug efficacy of the anti-FSTL1 antibody was evaluated according to Examples 17 to 20 using other cancer-bearing models of C57BL/6 mice of the same strain as in Snail-positive tumor bone metastasis models. The “mouse melanoma B16-F10” is a parent line of the cell line forced to express Snail, which was transplanted in the bone metastasis models used in the preceding tests.
1. Experiment Group (n=5) • 1. Mouse melanoma B16-F10+control IgG (anti-DNP mAb) • 2. Mouse melanoma B16-F10+anti-FSTL1 mAb (#6-55)
• Day 0: transplantation of tumor cells (1×10^6 cells subcutaneously & 1×10^6 cells intravenously) • Day 3: intraperitoneal administration of the antibody (first dose, corresponding to 200 μg/mouse=10 mg/kg) • Day 6: intraperitoneal administration of the antibody (second dose, corresponding to 200 μg/mouse=10 mg/kg) • Day 15 various immunological assays
• Effects on the growth of subcutaneous tumor (calculation of tumor volume by tumor size measurement): measured 6, 10, and 14 days after tumor implantation (FIG. 110A) • Effects on weight loss (FIG. 110B)

This is an account of results in patent publication US20180021429A1, “ANTICANCER AGENTS OR ANTIMETASTATIC AGENTS USING FSTL1 AND COMBINATION DRUG THEREOF” (PHARMA FOODS INTERNATIONAL CO., LTD., priority 2015, published 2018).

B1: #6-55: chicken-mouse chimeric anti-FSTL1 antibody clone; variable regions SEQ ID NO: 783 (light), 785 (heavy) (antibody, V domains shown)
VH: AVTLDESGGGLQTPGGALSLVCKGSGFTFTSVTMQWVRQAPGKGLEWVASVCSGSSTYYAPAVKGRATISRDNGQSTVRLQLSNLRPEDTGTYYCAKIAGRARWSCTSAAYNIDAWGHGTEVIVSS
VL: ASTQPSSVSAIPGETVKITCSGGGNNYGWYQQRSPGSAPVTVIYYNDNRPSNIPSRFSGSTSGSTSTLTITGVQADDEAIYYCGSWDSNTDSGIFGAGTTLTVL
modifications: mouse constant regions
For the molecule B1, the subcutaneous tumor growth result is given as “strongly suppressed” and the weight loss result is listed as “suppressive activity against weight loss was also exhibited”.
